Three molecules from patent US20200087400A1 (EUREKA THERAPEUTICS, published 2020) can be followed below.

Test [1] deals with T1, Bio-P19 member A2E-16 (chain 2: C-terminal BirA substrate peptide (BSP), enzymatically biotinylated; its letters are not printed in the patent and it is left out).
T1 construct: also called biotinylated control peptide A2E-16/HLA-A*02:01 monomer
In words: phage ELISA, streptavidin plate, anti-M13-HRP. The procedure:
(§1) Individual phage clones from enriched phage display panning pools against PSA146/HLA-A*02:01 complex were incubated in the coated plates. Binding of the phage clones was detected by HRP-conjugated anti-M13 antibodies and developed using HRP substrate. The absorbance was read at 450 nm. […] Then, unique antibody clones were identified through DNA sequencing of ELISA-positive clones. […] T2 cells loaded with different peptides and β2M were first stained with purified scFv phage clones, followed by staining with a mouse anti-M13 mAb, and finally R-PE conjugated horse anti-mouse IgG from Vector Labs. Each step of the staining was performed for between 30-60 minutes on ice and the cells were washed twice between stainings. All 16 clones recognized PSA146-loaded T2 cells specifically. FIG. 3 provides examples of PSA146/HLA-A*02:01 specific phage clone binding to peptide-loaded T2 cells through FACS.

Test [2] addresses T2, Bio-P19 member A2E-14 (chain 2: C-terminal BirA substrate peptide (BSP), enzymatically biotinylated; its letters are not printed in the patent and it is left out).
T2 construct: also called biotinylated control peptide A2E-14/HLA-A*02:01 monomer
In words: phage ELISA, streptavidin plate, anti-M13-HRP. As for the experimental part: as §1

The target of test [3] is T3, Bio-P19 member A2E-5 (chain 2 carries a C-terminal BirA substrate peptide (BSP), enzymatically biotinylated; the BSP letters are not given in the patent and are left out).
T3 construct: also called biotinylated control peptide A2E-5/HLA-A*02:01 monomer
In words: phage ELISA, streptavidin plate, anti-M13-HRP. As for the experimental part: as §1
Background: An ELISA detects its analyte on a solid surface through an enzyme-linked reagent.

Test [4] deals with T4, control peptide A2E-1/HLA-A*02:01 complex on T2 cells (member of the P19 mixture) (human).
T4 construct: Loaded on T2 cells as part of the mixture of 19 control peptides
Put plainly: flow cytometry, phage on T2 cells. As for the experimental part:
as §1
Background: A flow cytometer gives signals particle by particle.

Test [5] concerns the target T5, control peptide A2E-2/HLA-A*02:01 complex on T2 cells (member of the P19 mixture) (human).
T5 construct: Loaded on T2 cells as part of the mixture of 19 control peptides
In words: flow cytometry, phage on T2 cells. As for the experimental part: as §1

Test [6] addresses T6, control peptide A2E-5/HLA-A*02:01 complex on T2 cells (member of the P19 mixture) (human).
T6 construct: Loaded on T2 cells as part of the mixture of 19 control peptides
In words: flow cytometry, phage on T2 cells. As for the experimental part:
as §1

In test [7] the target is T7, control peptide A2E-19/HLA-A*02:01 complex on T2 cells (member of the P19 mixture) (human).
T7 construct: Loaded on T2 cells as part of the mixture of 19 control peptides
Put plainly: flow cytometry, phage on T2 cells. The procedure:
as §1

For test [8], the target named is T8, control peptide A2E-23/HLA-A*02:01 complex on T2 cells (member of the P19 mixture) (human).
T8 construct: Loaded on T2 cells as part of the mixture of 19 control peptides
Put plainly: flow cytometry, phage on T2 cells. As for the experimental part: as §1

Test [9] addresses T9, control peptide A2E-7/HLA-A*02:01 complex on T2 cells (member of the P19 mixture) (human).
T9 construct: Loaded on T2 cells as part of the mixture of 19 control peptides
In words: flow cytometry, phage on T2 cells. As for the experimental part: as §1

The target in test [10] is T10, control peptide A2E-11/HLA-A*02:01 complex on T2 cells (member of the P19 mixture) (human).
T10 construct: Loaded on T2 cells as part of the mixture of 19 control peptides
Put plainly: flow cytometry, phage on T2 cells. As for the experimental part:
as §1

The target in test [11] is T11, control peptide A2E-4/HLA-A*02:01 complex on T2 cells (member of the P19 mixture) (human).
T11 construct: Loaded on T2 cells as part of the mixture of 19 control peptides
Put plainly: flow cytometry, phage on T2 cells. As for the experimental part: as §1

In test [12] the target is T12, control peptide A2E-8/HLA-A*02:01 complex on T2 cells (member of the P19 mixture) (human).
T12 construct: Loaded on T2 cells as part of the mixture of 19 control peptides
Put plainly: flow cytometry, phage on T2 cells. As for the experimental part:
as §1

Test [13] concerns the target T13, control peptide A2E-15/HLA-A*02:01 complex on T2 cells (member of the P19 mixture) (human).
T13 construct: Loaded on T2 cells as part of the mixture of 19 control peptides
Put plainly: flow cytometry, phage on T2 cells. As for the experimental part: as §1

Test [14] concerns the target T14, control peptide A2E-17/HLA-A*02:01 complex on T2 cells (member of the P19 mixture) (human).
T14 construct: Loaded on T2 cells as part of the mixture of 19 control peptides
In words: flow cytometry, phage on T2 cells. As for the experimental part:
as §1

Test [15] addresses T15, control peptide A2E-16/HLA-A*02:01 complex on T2 cells (member of the P19 mixture) (human).
T15 construct: Loaded on T2 cells as part of the mixture of 19 control peptides
Put plainly: flow cytometry, phage on T2 cells. As for the experimental part: as §1

For test [16], the target named is T16, control peptide A2E-10/HLA-A*02:01 complex on T2 cells (member of the P19 mixture) (human).
T16 construct: Loaded on T2 cells as part of the mixture of 19 control peptides
In words: flow cytometry, phage on T2 cells. As for the experimental part: as §1

In test [17] the target is T17, control peptide A2E-13/HLA-A*02:01 complex on T2 cells (member of the P19 mixture) (human).
T17 construct: Loaded on T2 cells as part of the mixture of 19 control peptides
Put plainly: flow cytometry, phage on T2 cells. As for the experimental part:
as §1

Test [18] has as its target T18, control peptide A2E-9/HLA-A*02:01 complex on T2 cells (member of the P19 mixture) (human).
T18 construct: Loaded on T2 cells as part of the mixture of 19 control peptides
Put plainly: flow cytometry, phage on T2 cells. As for the experimental part: as §1

The target in test [19] is T19, control peptide A2E-6/HLA-A*02:01 complex on T2 cells (member of the P19 mixture) (human).
T19 construct: Loaded on T2 cells as part of the mixture of 19 control peptides
Put plainly: flow cytometry, phage on T2 cells. As for the experimental part:
as §1

Test [20] has as its target T20, control peptide A2E-21/HLA-A*02:01 complex on T2 cells (member of the P19 mixture) (human).
T20 construct: Loaded on T2 cells as part of the mixture of 19 control peptides
Put plainly: flow cytometry, phage on T2 cells. The procedure: as §1

The target in test [21] is T21, control peptide A2E-3/HLA-A*02:01 complex on T2 cells (member of the P19 mixture) (human).
T21 construct: Loaded on T2 cells as part of the mixture of 19 control peptides
Put plainly: flow cytometry, phage on T2 cells. As for the experimental part:
as §1

Test [22] has as its target T22, control peptide A2E-14/HLA-A*02:01 complex on T2 cells (member of the P19 mixture) (human).
T22 construct: Loaded on T2 cells as part of the mixture of 19 control peptides
Put plainly: flow cytometry, phage on T2 cells. As for the experimental part: as §1

Test [23] addresses T23, PSA 146-154 peptide/HLA-A*02:01 complex on the cell surface (human).
T23 construct: also called PSA146/HLA-A*02:01; PSA146-loaded T2 cells
In words: flow cytometry, phage on T2 cells, anti-M13 + R-PE anti-mouse IgG. As for the experimental part: as §1

Test [24] addresses T24, HLA-A*02:01 on T2 cells with no peptide loaded (human).
T24 construct: TAP-deficient T2 cells, no peptide loaded from outside; also called T2 cells without peptide loading
Described as above. The procedure: as §1

B1: PSA146/HLA-A*02:01-specific scFv phage clone #15 (scFv, V domains shown)
VH: QVQLVQSGAEVKKPGSSVKVSCKASGGTFSSYAISWVRQAPGQGLEWMGRIIPILGIANYAQKFQGRVTITADKSTSTAYMELSSLRSEDTAVYYCARVSQPVYGSSTYDIWGQGTLVTVSS
VL: QAVLTQPPSASGTPGQRVTISCSGRSSNLGSNSVNWYQQVPGTAPKLLIFDNHQRPSGVPDRFSGSKSGTSASLAISGLRSEDETDYYCAAWDDSLNSVVFGGGTKLTVLG
For the molecule B1, the binding result in [1], in test [2], in [3], in test [4], in test [5] and in [6] was “no binding” in each case. The binding result in test [7], in [8], in test [9], in test [10], in test [11] and in [12] was “no binding” in each case. Moreover, the binding result in test [13], in test [14], in test [15], in [16], in [17] and in [18] was “no binding” each time. Moreover, the binding result in test [19] is “no binding”; in [20], “no binding”; in [21], “no binding”; in test [22] it was “no binding”; in test [23], “binds”; in [24], “no binding”.

B2: PSA146/HLA-A*02:01-specific scFv phage clone #13 (scFv, V domains shown)
VH: QVQLVQSGAEVKKPGASVKVSCKASGYTFTSYYMHWVRQAPGQGLEWMGGFDPEDGETIYAQKFQGRVTMTEDTSTDTAYMGLSSLRSEDTAVYYCARYSYDYWGQGTLVTVSS
VL: QAVVTQEPSLTVSPGGTVTLTCASSTGAVTSGYYPNWFQQKPGQAPRALIYSTSNKHSWTPARFSGSLLGGKAALTLSGVQPEDEAEYYCLLYYGGAYVFGTGTKVTVLG
For the molecule B2, the binding result in test [1], in test [2], in test [3], in test [4], in [5] and in [6] was “no binding” in each case. The binding result in test [7], in test [8], in test [9], in test [10], in test [11] and in [12] was “no binding” each time. Further, the binding result in test [13], in test [14], in [15], in test [16], in test [17] and in test [18] was “no binding” in each case. Further, the binding result in test [19] was “no binding”; in test [20], “no binding”; in test [21] it was “no binding”; in test [22] it was “no binding”; in test [23], “binds”; in [24] it was “no binding”.

B3: PSA146/HLA-A*02:01-specific scFv phage clone #14 (scFv, V domains shown)
VH: EVQLVQSGAEVKKPGASVKVSCKASGYTFTGYFMHWVRQAPGQGLEWMGGFDPEDGETIYAQKFQGRVTMTEDTSTDTAYMELSSLRSEDTAVYYCARYSYDLWGQGTLVTVSS
VL: QTVVTQEPSLTVSPGGTVTLTCASSTGAVTSGYYPNWFQQKPGQAPRALIYSTSNKHSWTPARFSGSLLGGKAALTLSGVQPEDEAEYYCLLYYGGAQWVFGGGTKLTVLG
On to B3, for which the binding result in test [1], in test [2], in test [3], in test [4], in test [5] and in [6] was “no binding” throughout. The binding result in test [7], in test [8], in test [9], in test [10], in test [11] and in test [12] was “no binding” throughout. The binding result in [13], in test [14], in [15], in test [16], in [17] and in [18] was “no binding” in each case. Further, the binding result in test [19] was “no binding”; in test [20], “no binding”; in test [21] it was “no binding”; in test [22], “no binding”; in test [23], “binds”; in test [24], “no binding”.
